Reference: the supplement of paper PMC6755084

B1: F1*; the commonest letter at each place (parent)
chain: GAGACCGCAACTGAAAAGTTGTTATCACTTGTCGTAAGACACTTTGGATGGGTTGAAGTTCTGCACGTAGAAGCAAAAGGC

Variants of: B1
Experiment: fraction ligated after 30 min (ligated reads / total reads); higher = more ligase activity
Conditions: with F1*sub RNA substrate (template-directed ligation), 42 °C
How it was run: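 Oligo-pool templates underwent PCR amplification, T7 transcription and gel purification to yield ribozyme variants. Gel-separated ligated and unligated bands were converted to complementary DNA with barcoded primers and sequenced on a MiSeq, keeping core bases of quality ≥20. The ratio of ligated reads to total reads gave the fraction ligated for every variant.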

Variant	fraction ligated
GAGACCGCAACTGAAAAGTTGTTATCACTTGTCGTAAGACAATTTGGATGGGTTAAAGTTCTGCACGTAGAAGCAAAAGGC	0.837
GAGACCGCAACTGAAAAGTTGTTATCACTTGTCGTAAGACAATTTGGATGGGTTCAAGTTCTGCACGTAGAAGCAAAAGGC	0.746
GAGACCGCAACTGAAAAGTTGTTATCACTTGTCGTAAGACAATTTGGATGGGTTTAAGTTCTGCACGTAGAAGCAAAAGGC	0.814
GAGACCGCAACTGAAAAGTTGTTATCACTTGTCGTAAGACAAATTGGATGGGTTGAAGTTCTGCACGTAGAAGCAAAAGGC	0.82
GAGACCGCAACTGAAAAGTTGTTATCACTTGTCGTAAGACAACTTGGATGGGTTGAAGTTCTGCACGTAGAAGCAAAAGGC	0.825
GAGACCGCAACTGAAAAGTTGTTATCACTTGTCGTAAGACAAGTTGGATGGGTTGAAGTTCTGCACGTAGAAGCAAAAGGC	0.805
GAGACCGCAACTGAAAAGTTGTTATCACTTGTCGTAAGACAATATGGATGGGTTGAAGTTCTGCACGTAGAAGCAAAAGGC	0.855
GAGACCGCAACTGAAAAGTTGTTATCACTTGTCGTAAGACAATCTGGATGGGTTGAAGTTCTGCACGTAGAAGCAAAAGGC	0.834
GAGACCGCAACTGAAAAGTTGTTATCACTTGTCGTAAGACAATGTGGATGGGTTGAAGTTCTGCACGTAGAAGCAAAAGGC	0.805
GAGACCGCAACTGAAAAGTTGTTATCACTTGTCGTAAGACAATTAGGATGGGTTGAAGTTCTGCACGTAGAAGCAAAAGGC	0.766
GAGACCGCAACTGAAAAGTTGTTATCACTTGTCGTAAGACAATTCGGATGGGTTGAAGTTCTGCACGTAGAAGCAAAAGGC	0.778
GAGACCGCAACTGAAAAGTTGTTATCACTTGTCGTAAGACAATTGGGATGGGTTGAAGTTCTGCACGTAGAAGCAAAAGGC	0.282
GAGACCGCAACTGAAAAGTTGTTATCACTTGTCGTAAGACAATTTGGAAGGGTTGAAGTTCTGCACGTAGAAGCAAAAGGC	0.797
GAGACCGCAACTGAAAAGTTGTTATCACTTGTCGTAAGACAATTTGGACGGGTTGAAGTTCTGCACGTAGAAGCAAAAGGC	0.727
GAGACCGCAACTGAAAAGTTGTTATCACTTGTCGTAAGACAATTTGGAGGGGTTGAAGTTCTGCACGTAGAAGCAAAAGGC	0.789
GAGACCGCAACTGAAAAGTTGTTATCACTTGTCGTAAGACAGTTTGGATGGGTTGAAGTTCTGCACGTAGAAGCAAAAGGC	0.854
GAGACCGCAACTGAAAAGTTGTTATCACTTGTCGTAAGACAGTTTGGCTGGGTTGAAGTTCTGCACGTAGAAGCAAAAGGC	0.765
GAGACCGCAACTGAAAAGTTGTTATCACTTGTCGTAAGACAGTTTGGGTGGGTTGAAGTTCTGCACGTAGAAGCAAAAGGC	0.821
GAGACCGCAACTGAAAAGTTGTTATCACTTGTCGTAAGACAGTTTGGTTGGGTTGAAGTTCTGCACGTAGAAGCAAAAGGC	0.792
GAGACCGCAACTGAAAAGTTGTTATCACTTGTCGTAAGACAGTTTGGATGGGTTGCAGTTCTGCACGTAGAAGCAAAAGGC	0.801
GAGACCGCAACTGAAAAGTTGTTATCACTTGTCGTAAGACAGTTTGGATGGGTTGGAGTTCTGCACGTAGAAGCAAAAGGC	0.792
GAGACCGCAACTGAAAAGTTGTTATCACTTGTCGTAAGACAGTTTGGATGGGTTGTAGTTCTGCACGTAGAAGCAAAAGGC	0.797
GAGACCGCAACTGAAAAGTTGTTATCACTTGTCGTAAGACAGTTTGGATGGGTTGACGTTCTGCACGTAGAAGCAAAAGGC	0.818

Variant	fraction ligated
GAGACCGCAACTGAAAAGTTGTTATCACTTGTCGTAAGACAGTTTGGATGGGTTGAGGTTCTGCACGTAGAAGCAAAAGGC	0.807
GAGACCGCAACTGAAAAGTTGTTATCACTTGTCGTAAGACAGTTTGGATGGGTTGATGTTCTGCACGTAGAAGCAAAAGGC	0.834
GAGACCGCAACTGAAAAGTTGTTATCACTTGTCGTAAGACAGTTTAGATGGGTTGAAGTTCTGCACGTAGAAGCAAAAGGC	0.808
GAGACCGCAACTGAAAAGTTGTTATCACTTGTCGTAAGACAGTTTCGATGGGTTGAAGTTCTGCACGTAGAAGCAAAAGGC	0.816
GAGACCGCAACTGAAAAGTTGTTATCACTTGTCGTAAGACAGTTTTGATGGGTTGAAGTTCTGCACGTAGAAGCAAAAGGC	0.793
GAGACCGCAACTGAAAAGTTGTTATCACTTGTCGTAAGACAGTTTGAATGGGTTGAAGTTCTGCACGTAGAAGCAAAAGGC	0.805
GAGACCGCAACTGAAAAGTTGTTATCACTTGTCGTAAGACAGTTTGCATGGGTTGAAGTTCTGCACGTAGAAGCAAAAGGC	0.64
GAGACCGCAACTGAAAAGTTGTTATCACTTGTCGTAAGACAGTTTGTATGGGTTGAAGTTCTGCACGTAGAAGCAAAAGGC	0.68
GAGACCGCAACTGAAAAGTTGTTATCACTTGTCGTAAGACAGTTTGGATAGGTTGAAGTTCTGCACGTAGAAGCAAAAGGC	0.372
GAGACCGCAACTGAAAAGTTGTTATCACTTGTCGTAAGACAGTTTGGATCGGTTGAAGTTCTGCACGTAGAAGCAAAAGGC	0.27
GAGACCGCAACTGAAAAGTTGTTATCACTTGTCGTAAGACAGTTTGGATTGGTTGAAGTTCTGCACGTAGAAGCAAAAGGC	0.713
GAGACCGCAACTGAAAAGTTGTTATCACTTGTCGTAAGACAGTTTGGATGGGTTAAAGTTCTGCACGTAGAAGCAAAAGGC	0.853
GAGACCGCAACTGAAAAGTTGTTATCACTTGTCGTAAGACAGTTTGGATGGGTTCAAGTTCTGCACGTAGAAGCAAAAGGC	0.758
GAGACCGCAACTGAAAAGTTGTTATCACTTGTCGTAAGACAGTTTGGATGGGTTTAAGTTCTGCACGTAGAAGCAAAAGGC	0.809
GAGACCGCAACTGAAAAGTTGTTATCACTTGTCGTAAGACAGATTGGATGGGTTGAAGTTCTGCACGTAGAAGCAAAAGGC	0.856
GAGACCGCAACTGAAAAGTTGTTATCACTTGTCGTAAGACAGCTTGGATGGGTTGAAGTTCTGCACGTAGAAGCAAAAGGC	0.836
GAGACCGCAACTGAAAAGTTGTTATCACTTGTCGTAAGACAGGTTGGATGGGTTGAAGTTCTGCACGTAGAAGCAAAAGGC	0.827
GAGACCGCAACTGAAAAGTTGTTATCACTTGTCGTAAGACAGTATGGATGGGTTGAAGTTCTGCACGTAGAAGCAAAAGGC	0.851
GAGACCGCAACTGAAAAGTTGTTATCACTTGTCGTAAGACAGTCTGGATGGGTTGAAGTTCTGCACGTAGAAGCAAAAGGC	0.851
GAGACCGCAACTGAAAAGTTGTTATCACTTGTCGTAAGACAGTGTGGATGGGTTGAAGTTCTGCACGTAGAAGCAAAAGGC	0.841
GAGACCGCAACTGAAAAGTTGTTATCACTTGTCGTAAGACAGTTAGGATGGGTTGAAGTTCTGCACGTAGAAGCAAAAGGC	0.796
GAGACCGCAACTGAAAAGTTGTTATCACTTGTCGTAAGACAGTTCGGATGGGTTGAAGTTCTGCACGTAGAAGCAAAAGGC	0.756
GAGACCGCAACTGAAAAGTTGTTATCACTTGTCGTAAGACAGTTGGGATGGGTTGAAGTTCTGCACGTAGAAGCAAAAGGC	0.291

Variant	fraction ligated
GAGACCGCAACTGAAAAGTTGTTATCACTTGTCGTAAGACAGTTTGGAAGGGTTGAAGTTCTGCACGTAGAAGCAAAAGGC	0.79
GAGACCGCAACTGAAAAGTTGTTATCACTTGTCGTAAGACAGTTTGGACGGGTTGAAGTTCTGCACGTAGAAGCAAAAGGC	0.727
GAGACCGCAACTGAAAAGTTGTTATCACTTGTCGTAAGACAGTTTGGAGGGGTTGAAGTTCTGCACGTAGAAGCAAAAGGC	0.777
GAGACCGCAACTGAAAAGTTGTTATCACTTGTCGTAAGACATTTTGGATGGGTTGAAGTTCTGCACGTAGAAGCAAAAGGC	0.856
GAGACCGCAACTGAAAAGTTGTTATCACTTGTCGTAAGACATTTTGGCTGGGTTGAAGTTCTGCACGTAGAAGCAAAAGGC	0.779
GAGACCGCAACTGAAAAGTTGTTATCACTTGTCGTAAGACATTTTGGGTGGGTTGAAGTTCTGCACGTAGAAGCAAAAGGC	0.806
GAGACCGCAACTGAAAAGTTGTTATCACTTGTCGTAAGACATTTTGGTTGGGTTGAAGTTCTGCACGTAGAAGCAAAAGGC	0.796
GAGACCGCAACTGAAAAGTTGTTATCACTTGTCGTAAGACATTTTGGATGGGTTGCAGTTCTGCACGTAGAAGCAAAAGGC	0.797
GAGACCGCAACTGAAAAGTTGTTATCACTTGTCGTAAGACATTTTGGATGGGTTGGAGTTCTGCACGTAGAAGCAAAAGGC	0.821
GAGACCGCAACTGAAAAGTTGTTATCACTTGTCGTAAGACATTTTGGATGGGTTGTAGTTCTGCACGTAGAAGCAAAAGGC	0.811
GAGACCGCAACTGAAAAGTTGTTATCACTTGTCGTAAGACATTTTGGATGGGTTGACGTTCTGCACGTAGAAGCAAAAGGC	0.812
GAGACCGCAACTGAAAAGTTGTTATCACTTGTCGTAAGACATTTTGGATGGGTTGAGGTTCTGCACGTAGAAGCAAAAGGC	0.812
GAGACCGCAACTGAAAAGTTGTTATCACTTGTCGTAAGACATTTTGGATGGGTTGATGTTCTGCACGTAGAAGCAAAAGGC	0.847
GAGACCGCAACTGAAAAGTTGTTATCACTTGTCGTAAGACATTTTAGATGGGTTGAAGTTCTGCACGTAGAAGCAAAAGGC	0.835
GAGACCGCAACTGAAAAGTTGTTATCACTTGTCGTAAGACATTTTCGATGGGTTGAAGTTCTGCACGTAGAAGCAAAAGGC	0.813
GAGACCGCAACTGAAAAGTTGTTATCACTTGTCGTAAGACATTTTTGATGGGTTGAAGTTCTGCACGTAGAAGCAAAAGGC	0.805
GAGACCGCAACTGAAAAGTTGTTATCACTTGTCGTAAGACATTTTGAATGGGTTGAAGTTCTGCACGTAGAAGCAAAAGGC	0.823
GAGACCGCAACTGAAAAGTTGTTATCACTTGTCGTAAGACATTTTGCATGGGTTGAAGTTCTGCACGTAGAAGCAAAAGGC	0.11
GAGACCGCAACTGAAAAGTTGTTATCACTTGTCGTAAGACATTTTGTATGGGTTGAAGTTCTGCACGTAGAAGCAAAAGGC	0.408
GAGACCGCAACTGAAAAGTTGTTATCACTTGTCGTAAGACATTTTGGATAGGTTGAAGTTCTGCACGTAGAAGCAAAAGGC	0.634
GAGACCGCAACTGAAAAGTTGTTATCACTTGTCGTAAGACATTTTGGATCGGTTGAAGTTCTGCACGTAGAAGCAAAAGGC	0.497
GAGACCGCAACTGAAAAGTTGTTATCACTTGTCGTAAGACATTTTGGATTGGTTGAAGTTCTGCACGTAGAAGCAAAAGGC	0.808
